{
  "source": "patent US20160252495A1",
  "about": "(UNIVERSITY OF BRITISH COLUMBIA, published 2016)",
  "binders": {"B1": {"name": "Mm20 mouse anti-hen egg lysozyme antibody (antibody, V domains shown)", "VH": "QVQLQQSGPELMKPGASVKISCKATGYTFRNYWIEWIKQRPGHGLEWIGEILPESGSINYNEKFKGKATFTADTSSNTAYLQLRSLTSEDSAVYYCFYDNYVFDYWGQGTTL", "VL": "QIVLIQSPTIMSASPGEKVTMTCSANSSFSYMHWYQQKSGTSPKRWIYDTSKLASGVPARFSGSGSGTSYSLTISSMEAEDAATYYCQQWSRNPTFGAGTKL"}},
  "target": "T1, hen egg white lysozyme (hen, UniProt P00698 19-147)",
  "T1 construct": "also called HEL; hen-egg lysozyme",
  "T1 sequence (P00698 19-147 limits assumed)": "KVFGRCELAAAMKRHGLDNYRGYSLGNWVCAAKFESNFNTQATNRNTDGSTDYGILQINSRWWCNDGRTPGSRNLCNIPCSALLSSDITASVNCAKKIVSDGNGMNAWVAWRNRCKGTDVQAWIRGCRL",
  "test": "affinity measurements by microfluidic screening",
  "data": [
    {"binder": "B1", "values": [
      {"measurement": "binding result", "result": "binds"}
    ]}
  ]
}
